Measurements published in paper PMC5828407 (2018).

B1: peptide F4ab 148–160 [modified: FITC-Ahx on the N-terminus; FITC-Ahx on the N-terminus] [Escherichia coli] / porcine aminopeptidase N (APN), His-tagged whole protein [porcine] (parent complex)
chain 1: NASYAGVFGKGGV
chain 2: MAKGFYISKALGILGILLGVAAVATIIALSVVYAQEKNKNAEHVPQAPTSPTITTTAAITLDQSKPWNRYRLPTTLLPDSYNVTLRPYLTPNADGLYIFKGKSIVRLLCQEPTDVIIIHSKKLNYTTQGHMVVLRGVGDSQVPEIDRTELVELTEYLVVHLKGSLQPGHMYEMESEFQGELADDLAGFYRSEYMEGNVKKVLATTQMQSTDARKSFPCFDEPAMKATFNITLIHPNNLTALSNMPPKGSSTPLAEDPNWSVTEFETTPVMSTYLLAYIVSEFQSVNETAQNGVLIRIWARPNAIAEGHGMYALNVTGPILNFFANHYNTSYPLPKSDQIALPDFNAGAMENWGLVTYRENALLFDPQSSSISNKERVVTVIAHELAHQWFGNLVTLAWWNDLWLNEGFASYVEYLGADHAEPTWNLKDLIVPGDVYRVMAVDALASSHPLTTPAEEVNTPAQISEMFDSISYSKGASVIRMLSNFLTEDLFKEGLASYLHAFAYQNTTYLDLWEHLQKAVDAQTSIRLPDTVRAIMDRWTLQMGFPVITVDTKTGNISQKHFLLDSESNVTRSSAFDYLWIVPISSIKNGVMQDHYWLRDVSQAQNDLFKTASDDWVLLNVNVTGYFQVNYDEDNWRMIQHQLQTNLSVIPVINRAQVIYDSFNLATAHMVPVTLALDNTLFLNGEKEYMPWQAALSSLSYFSLMFDRSEVYGPMKKYLRKQVEPLFQHFETLTKNWTERPENLMDQYSEINAISTACSNGLPQCENLAKTLFDQWMSDPENNPIHPNLRSTIYCNAIAQGGQDQWDFAWGQLQQAQLVNEADKLRSALACSNEVWLLNRYLGYTLNPDLIRKQDATSTINSIASNVIGQPLAWDFVQSNWKKLFQDYGGGSFSFSNLIQGVTRRFSSEFELQQLEQFKKNNMDVGFGSGTRALEQALEKTKANIKWVKENKEVVLNWFIEHS
B2: peptide F4ad 200–218 [modified: FITC-Ahx on the N-terminus; FITC-Ahx on the N-terminus] [Escherichia coli] / porcine aminopeptidase N (APN), His-tagged whole protein [porcine] (parent complex)
chain 1: ARTELFGSLSKNDILGQIQ
chain 2: B1 chain 2
B3: peptide F4ac 200–218 [modified: FITC-Ahx on the N-terminus; FITC-Ahx on the N-terminus] [Escherichia coli] / porcine aminopeptidase N (APN), His-tagged whole protein [porcine] (parent complex)
chain 1: TKLFGSLSRNDILGQIQRV
chain 2: B1 chain 2

Variants of: B1
Assay: ELISA; parent: 30; read off a plot

Row | Variant | response
1 | chain 1 G12A | ~28 relative value APN/PBS at 450 nm

Variants of: B2
Assay: ELISA; parent: 55; read off a plot

Row | Variant | response
2 | chain 1 A1E | ~53 relative value APN/PBS at 450 nm

Variants of: B3
Assay: ELISA; parent: 29; read off a plot

Row | Variant | response
3 | chain 1 N10A | ~15 relative value APN/PBS at 450 nm
4 | chain 1 S8A | ~27 relative value APN/PBS at 450 nm
5 | chain 1 G14A | ~6.5 relative value APN/PBS at 450 nm
6 | chain 1 L7A | ~6.5 relative value APN/PBS at 450 nm
7 | chain 1 L3A | ~73 relative value APN/PBS at 450 nm
8 | chain 1 L13A | ~13 relative value APN/PBS at 450 nm
9 | chain 1 R18A | ~6.5 relative value APN/PBS at 450 nm
10 | chain 1 G5A | ~20 relative value APN/PBS at 450 nm
11 | chain 1 K2A | ~48 relative value APN/PBS at 450 nm
